Assays:
[1] = target: T1, human BAFF (10056-HNCH, Sino biological) (human, UniProt Q9Y275 134-285); assay: competition ELISA: biotin-labeled BAFF to coated BAFF-R
T1 construct: Bought protein
In short: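 Receptor coated at 2 μg/mL in PBS pH 7.4 overnight at 4° C and casein-blocked; fixed-concentration biotinylated ligand preincubated 30 min at 37° C with serially diluted antibody/fusion protein, then bound 1.5 h at 37° C. Streptavidin-HRP/TMB read at 450 nm; IC₅₀ from fitted binding-inhibition curves.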

[2] = target: T2, BAFF (ACROBiosystems, BAF-H5248) (UniProt Q9Y275 134-285); assay: ELISA, fusion protein coated, BAFF titrated, Anti-His-HRP
T2 construct: Bought protein used in the ELISA with coated test sample
Experimental: The binding activity of the TACI fusion proteins for BAFF and APRIL was assayed by the ELISA method (coating a test fusion protein sample). The specific procedures were as follows:
The test sample was diluted to 2 μg/mL with a PBS (BasalMedia, B320) buffer at pH 7.4 and added to a 96-well microplate (Corning, 3590) at 100 μL/well. The plate was incubated at 4° C. overnight. After the liquid was discarded, 300 μL of 5% skim milk (BD, 232100) diluted with PBS was added to each well for blocking, and the plate was incubated at 37° C. for 2 h. After the blocking was completed, the blocking solution was discarded, and the plate was washed 3 times with a PBST buffer (PBS at pH 7.4 containing 0.1% tween-20). 100 μL of BAFF (ACROBiosystems, BAF-H5248) or APRIL (R&D Systems, 5860-AP-010/CF) diluted in a gradient was added to each well, and the plate was incubated at 37° C. for 1 h. After the incubation, the plate was washed 3 times with PBST. When detecting the binding to BAFF, 100 μL of Anti-His-HRP (Sino biological, 105327-MM02T-H, diluted at a ratio of 1:2000) was added to each well; when detecting the binding to APRIL, 100 μL of anti-HA-HRP (Abcam, ab1190, diluted at a ratio of 1:4000) was added to each well. The plate was incubated at 37° C. for 1 h. The plate was washed 3 times with PBST. 100 μL of TMB chromogenic substrate (KPL, 5120-0077) was added to each well, and the plate was incubated at room temperature for 10-15 min. The reaction was stopped by adding 50 μL of 1 M H₂SO₄ to each well. The plate was read for absorbance values at 450 nm on a microplate reader, the binding curves of the antibodies to an antigen were fitted with software, and the EC₅₀ values were calculated.

[3] = target: T3, IL-12/23 p40 (Sino biological, 10052-H08H) (UniProt P29460 23-328); assay: ELISA, IL-12/23 p40 coated
T3 construct: Bought protein
T3 sequence (looked up): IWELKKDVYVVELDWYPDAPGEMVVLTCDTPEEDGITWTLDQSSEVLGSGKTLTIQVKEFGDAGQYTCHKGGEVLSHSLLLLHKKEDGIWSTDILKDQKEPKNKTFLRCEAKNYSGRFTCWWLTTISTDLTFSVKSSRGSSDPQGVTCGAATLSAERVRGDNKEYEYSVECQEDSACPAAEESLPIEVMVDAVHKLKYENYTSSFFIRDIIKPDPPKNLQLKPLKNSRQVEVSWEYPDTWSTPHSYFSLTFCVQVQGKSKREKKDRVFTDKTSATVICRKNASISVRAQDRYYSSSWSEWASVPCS

[4] = target: T4, human APRIL (5860-AP-010/CF, R&D Systems) (human, UniProt O75888 115-250, limits assumed); assay: cell-based or functional assay
T4 sequence (looked up): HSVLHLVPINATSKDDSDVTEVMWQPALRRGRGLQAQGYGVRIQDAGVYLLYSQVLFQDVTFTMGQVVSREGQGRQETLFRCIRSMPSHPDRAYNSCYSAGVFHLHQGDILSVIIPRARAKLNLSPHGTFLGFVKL

[5] = target: T4, human APRIL (5860-AP-010/CF, R&D …); assay: competition ELISA: biotin-labeled APRIL to coated TACI
Experimental: A receptor protein was diluted to 2 μg/mL with PBS at pH 7.4 (BasalMedia, B320) and added to a 96-well microplate (Corning, 3590) at 100 μL/well. The plate was incubated at 4° C. overnight. After the liquid was discarded, 200 μL of 1% Casein blocking solution (Thermo, 37528) was added to each well for blocking, and the plate was incubated at 37° C. for 2 h. After the blocking was completed, the blocking solution was discarded, and the plate was washed 3 times with a PBST buffer (PBS at pH 7.4 containing 0.1% tween-20) for later use. A biotin-labeled ligand protein at a fixed concentration was mixed with the antibody or fusion protein diluted in gradient, pre-incubated at 37° C. for 30 min, and added to a blocked microplate. The plate was incubated at 37° C. for 1.5 h. After the incubation was completed, the plate was washed 3 times with PBST. 100 μL of streptavidin-HRP (Invitrogen, 434323, diluted at a ratio of 1:4000) was added to each well, and the plate was incubated at 37° C. for 1 h. The supernatant was removed, and the plate was washed 3 times with PBST. […] The plate was read for absorbance values at 450 nm on a microplate reader, the curves for the inhibition of the binding of the ligands to the receptors were fitted with software, and the IC₅₀ values were calculated. […]

IC50 [1]: 27.5 nM | EC50 [2]: 96.2 nM | binding result [3]: no binding | IC50 (nM) for the inhibition of the APRIL-induced B cell proliferation [4]: 1.09 nM | IC50 [5]: 3.3 nM
B1: RCT-18 (Telitacicept) (Fc fusion)
chain: SRVDQEERFPQGLWTGVAMRSCPEEQYWDPLLGTCMSCKTICNHQSQRTCAAFCRSLSCRKEQGKFYDHLLRDCISCASICGQHPKQCAYFCENKLRSPVNLPPELDKTHTCPPCPAPEAEGAPSVFLFPPKPKDTLMISRTPEVTCVVVDVSHEDPEVKFNWYVDGVEVHNAKTKPREEQYNSTYRVVSVLTVLHQDWLNGKEYKCKVSNKALPSSIEKTISKAKGQPREPQVYTLPPSRDELTKNQVSLTCLVKGFYPSDIAVEWESNGQPENNYKTTPPVLDSDGSFFLYSKLTVDKSRWQQGNVFSCSVMHEALHNHYTQKSLSLSPGK
notes: Positive control; TACI part is positions 13-118 of the extracellular region of human TACI, the rest is Fc

From patent US20240301031A1 (JIANGSU HENGRUI PHARMACEUTICALS, published 2024)
